# Test results from article PMC2635704.
# Molecular target: BjVIII, myotoxic Lys49-PLA2 from Bothrops jararacussu venom (Bothrops jararacussu)
# Assay: tricine SDS-PAGE under non-reducing conditions
substance,measurement,value
"BjVIII, myotoxic Lys49-PLA2 from Bothrops jararacussu venom (natural protein)",stoichiometry N,2
